Data reported in patent US20230002757A1 (ZHEJIANG NANOMAB TECHNOLOGY CENTER, published 2023).

T1: BCMA-His (human, UniProt Q02223 1-54)
T1 construct: coating antigen, 1 ug/mL; also called His-conjugated human BCMA; not shown: His tag
T1 sequence (looked up): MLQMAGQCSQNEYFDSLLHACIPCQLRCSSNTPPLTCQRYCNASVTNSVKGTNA

T2: BCMA-Fc (human, UniProt Q02223 1-54)
T2 construct: coating antigen, 1 ug/mL; also called Fc-conjugated human BCMA; not shown: Fc
T2 sequence (looked up): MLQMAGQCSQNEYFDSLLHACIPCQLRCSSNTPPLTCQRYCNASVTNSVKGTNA

T3: BCMA on RPMI8226 cells (UniProt Q02223 1-184, limits assumed)
T3 construct: whole, on cells
T3 sequence (looked up): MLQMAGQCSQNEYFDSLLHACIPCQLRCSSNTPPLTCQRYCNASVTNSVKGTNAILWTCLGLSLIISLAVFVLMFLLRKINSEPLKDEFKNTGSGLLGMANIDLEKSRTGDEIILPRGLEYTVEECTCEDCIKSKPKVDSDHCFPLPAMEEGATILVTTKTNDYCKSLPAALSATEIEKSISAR


Assays:
PD-1 protein [1] = molecular target: T4, PD-1 protein (human, UniProt Q15116 25-167, limits assumed); assay: ELISA, PD-1 coated
T4 construct: also called human PD-1
T4 sequence (Q15116 25-167 limits assumed): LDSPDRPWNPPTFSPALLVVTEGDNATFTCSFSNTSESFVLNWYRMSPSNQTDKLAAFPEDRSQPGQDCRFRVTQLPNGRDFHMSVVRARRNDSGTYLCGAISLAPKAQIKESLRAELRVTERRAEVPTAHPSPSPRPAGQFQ
Method: 2 μg/ml of PD-1 protein is coated on 96-well plates overnight for ELISA binding assay. Recombinant VHH-FC proteins are added to the wells and allowed to stand for a period of time, then 1 μg/ml of HRP-conjugated anti-FC antibody is added as detection antibody and the assay reagents are added. The absorbance is read at 450 nm. Binding of nivolumab serves as a positive control and plates coated with BSA are used as the negative control group.

PD-1 protein [2] = molecular target: T4, PD-1 protein; assay: blocking ELISA, PD-1 coated, competitor biotin PD-L1
Method: Each well of 96-well microtiter plates is coated with 2 μg/ml of PD-1 protein in PBS and blocked with 1% BSA. […]
The intensity of the developed color is measured at 450 nm. Wells with no added PD-1 and no added VHH-FC are negative and positive controls, respectively.

Anti-His = molecular target: T5, Anti-His; assay: ELISA, Anti-His coated 1 ug/mL
T5 construct: ELISA coating control

[3] = molecular target: T6, EGFR on 293T-EGFR cells (293T cells negative for BCMA expression) (UniProt P00533 25-1210, limits assumed); assay: FACS on 293T-EGFR cells (BCMA negative)
T6 construct: whole, on cells; negative control cells; that they carry EGFR is read from the label only

[4] = molecular target: T6, EGFR on 293T-EGFR cells (293T cells …); assay: flow cytometry
BCMA-His = molecular target: T1, BCMA-His; assay: ELISA, BCMA-His coated 1 ug/mL
BCMA-Fc = molecular target: T2, BCMA-Fc; assay: ELISA, BCMA-Fc coated 1 ug/mL
human IgG = molecular target: T7, human IgG; assay: ELISA, human IgG coated 1 ug/mL
T7 construct: ELISA coating control

BCMA on RPMI8226 cells = molecular target: T3, BCMA on RPMI8226 cells; assay: FACS on RPMI8226 cells

| OD450 at 0.002 µg/mL (PD-1 protein [1]) [OD450] | OD450 at 0.02 µg/mL (PD-1 protein [1]) [OD450] | OD450 at 0.2 µg/mL (PD-1 protein [1]) [OD450] | OD450 at 2 µg/mL (PD-1 protein [1]) [OD450] | OD450 of PD-L1 bound, antibody at 0.15 µg/mL (PD-1 protein [2]) [OD450] | OD450 of PD-L1 bound, antibody at 0.61 µg/mL (PD-1 protein [2]) [OD450] | OD450 of PD-L1 bound, antibody at 2.42 µg/mL (PD-1 protein [2]) [OD450] | OD450 of PD-L1 bound, antibody at 9.75 µg/mL (PD-1 protein [2]) [OD450] | OD450 (Anti-His) [OD450] | MFI [3] [MFI] | binding result [4] | OD450 (BCMA-His) [OD450] | OD450 (BCMA-Fc) [OD450] | OD450 (human IgG) [OD450] | MFI (BCMA on RPMI8226 cells) [MFI] | Binder |
| --- | --- | --- | --- | --- | --- | --- | --- | --- | --- | --- | --- | --- | --- | --- | --- |
| 0.03 | 0.03 | 0.03 | 0.04 | 3.27 | 3.24 | 3.28 | 3.32 | – | – | – | – | – | – | – | 504#SS10 (Fc fusion, not shown: a dimerising Fc or GST; small tags and cut ends, VHH-FC construct from HEK293 cells) VHH: EVQLVESGGGLVQPGASLRLSCTASGSIFSIYAMGWYRQAPGKQRELVAYITSGGSTTYADSVKGRFTISRDNAKNTVYLQMNSLKPEDTAVYYCNRGNYYRDYKPEFWGQGTQVTVSS |
| 1.56 | 2.79 | 3.18 | 3.06 | 3.18 | 1.65 | 0.14 | 0.08 | – | – | – | – | – | – | – | 504#SS5 (Fc fusion, VHH-FC construct from HEK293 cells; not shown: The (G4S)3 linker leading to it is left out with it) VHH: QVQLVESGGGSAQAGGSLRLSCTASGRPFSIYDMGWFRQAPGKERESVAVINLSRGNTYYADSVKGRFTISLDSAKNTVYLQMNSLKPEDTAVYSCGVDRRQYGLGIPPLADYWGQGTQVTVSS |
| 0.03 | 0.03 | 0.03 | 0.03 | 3.34 | 3.33 | 3.29 | 3.33 | – | – | – | – | – | – | – | 504#SS13 (Fc fusion, not shown: a dimerising Fc or GST; small tags and cut ends, VHH-FC construct from HEK293 cells) VHH: EVQVVESGGGSVQPGGSLRLSCAASGRGFTEHAMGWYRQSPGKEREFVAGISSGGSTYYADSVKGRFTVSRDSAGNTVALQMDSLKPEDTAVYYCSYKRGRYPDGVSTLEYWGQGTQVTVSS |
| – | – | – | – | – | – | – | – | 1.96 | 216 | no binding | 2.25 | 2.52 | 0.03 | 864 | NBL507-A1L1-P1R2-1B6-(31)-PME207-SEQF_G04 (VHH, purified VHH) VHH: QVQLVESGGGLVQPGGSLRLSCAASGFTFSPSAMSWARQAPGKGLEWVSGIYSDGSTYYRDSVKGRFTISRDNARNMVYLQMNSLKPEDTAVYYCALGAMREGVYSDLLGQGTQVTVSS |
| 0.03 | 0.03 | 0.03 | 0.04 | 3.27 | 3.28 | 3.33 | 3.27 | – | – | – | – | – | – | – | 504#SS8 (Fc fusion, VHH-FC construct from HEK293 cells; not shown: The (G4S)3 linker leading to it is left out with it) VHH: EVQVVESGGGLVQAGGSLRLSCTASGRTFSNYAMGWFRQAPGKEREFVASVTWGGSGTFYADSVKGRFTISRDNIKNTVYLQMNSLKPEDTAVYYCAADNVGDSWYSDDYKYWGQGTQVTVSS |

Further lines, the binder ahead of its results:

| Binder | OD450 at 0.002 µg/mL (PD-1 protein [1]) [OD450] | OD450 at 0.02 µg/mL (PD-1 protein [1]) [OD450] | OD450 at 0.2 µg/mL (PD-1 protein [1]) [OD450] | OD450 at 2 µg/mL (PD-1 protein [1]) [OD450] | OD450 of PD-L1 bound, antibody at 0.15 µg/mL (PD-1 protein [2]) [OD450] | OD450 of PD-L1 bound, antibody at 0.61 µg/mL (PD-1 protein [2]) [OD450] | OD450 of PD-L1 bound, antibody at 2.42 µg/mL (PD-1 protein [2]) [OD450] | OD450 of PD-L1 bound, antibody at 9.75 µg/mL (PD-1 protein [2]) [OD450] | OD450 (Anti-His) [OD450] | MFI [3] [MFI] | binding result [4] | OD450 (BCMA-His) [OD450] | OD450 (BCMA-Fc) [OD450] | OD450 (human IgG) [OD450] | MFI (BCMA on RPMI8226 cells) [MFI] |
| --- | --- | --- | --- | --- | --- | --- | --- | --- | --- | --- | --- | --- | --- | --- | --- |
| 504#SS9 (Fc fusion, VHH-FC construct from HEK293 cells; not shown: The (G4S)3 linker leading to it is left out with it) VHH: EVQLQESGGGLVQAGGSLRLSCAASGRSFSGYAMAWFRQAPGKEREFVAAVNWNGGSTYYADSVKGRFTISRDNAKDTVYLQMNSLKPEDTAVYYCNARPTFGAYYSDYKSGVDYWGQGTQVTVSS | 0.03 | 0.03 | 0.03 | 0.04 | 3.42 | 3.36 | 3.46 | 3.32 | – | – | – | – | – | – | – |
| NBL507-A1L1-P1R2-1E2-(10)-PME207-SEQF_B02 (VHH, purified VHH) VHH: EVQLVESGGGLVQPGGSLRLSCAASGSISSIYAMGWYRQAPGKLRELVAAITTGGSTFYRDSVKGRFTISRDNVANTVYLQMNSLKPEDTAVYHCNGAPWGDIAPVAVSWGQGTQVTVSS | – | – | – | – | – | – | – | – | 2.44 | 227 | no binding | 2.37 | 2.53 | 0.03 | 2550 |
| NBL507-A1L1-P1R2-1B8-(44)-PME207-SEQF_D06 (VHH, purified VHH) VHH: QVQLVESGGGLVQPEGSLRLSCAASGSIFSIYAMGWYRQAPGKQRGLVAAITSGGDTFYADSVKGRFTISRDNARNTVYLQMNNLKSEDTAVYDCNGAPWGDHAPLVASWGQGTQVTVSS | – | – | – | – | – | – | – | – | 1.79 | 219 | no binding | 2.27 | 2.47 | 0.01 | 1810 |
| NBL507-A1L1-P1R2-1A1-(1)-PME207-SEQF_A01 (VHH, purified VHH; also called lAl) VHH: EVQLVESGGGLVQPGGSLRLSCAASGFTFRSSAMSWARQAPGKGLEWVSDIYPDGRTDYADSIKGRFTMSRDNAKNTVYLLMDSLKPEDTAVYHCQVGRYVSGVYYQPRGQGTQVTVSS | – | – | – | – | – | – | – | – | 2.1 | 230 | no binding | 2.37 | 2.47 | 0.03 | 2420 |
| 504#SS12 (Fc fusion, not shown: a dimerising Fc or GST; small tags and cut ends, VHH-FC construct from HEK293 cells) VHH: EVQVVESGGGLVQPGGSLRLSCAVSGRGFSEHAMGWYRQSPGKQREFVAGVTSYGGTNYADSVKGRFTISRDNVGNTVFLQMNSLKPEDTAVYYCNYKRGHYPDGVSTYEYWGQGTQVTVSS | 0.03 | 0.03 | 0.04 | 0.07 | 3.22 | 3.2 | 3.27 | 3.28 | – | – | – | – | – | – | – |
| 504#SS7 (Fc fusion, VHH-FC construct from HEK293 cells; not shown: The (G4S)3 linker leading to it is left out with it) VHH: QVQLVESGGGLVQAGGSLTLSCAASGRTFNSYAMGWFRQAPGKEREFVAAISQNGGSQGYAEAVKDRFTISRDNTNKVVALQMNSLKPEDTAAYYCAADGDASDRSYAPPRDYKYEYWGQGTQVTVSS | 0.03 | 0.05 | 0.24 | 1.07 | 3.32 | 3.35 | 3.31 | 3.26 | – | – | – | – | – | – | – |
| NBL507-A2L1-P1R2-1C1-(273)-PME207-SEQF_E11 (VHH, purified VHH) VHH: QVQLVESGGGLVHPGGSLRLDCAVSERIASFNVMGWYRQAPGQQREVVATITSVGRTYYADSVKGRFTIAKDNDKNTYLQMNSLKPEDTAVYYCKAVIVGTYDTEYWGQGTLVTVSS | – | – | – | – | – | – | – | – | 0.71 | 222 | no binding | 2.28 | 3.12 | 0.03 | 764 |
| NBL507-A1L1-P1R2-1D2-(9)-PME207-SEQF_A02 (VHH, purified VHH) VHH: QVQLVESGGGLVQPGGSLRLSCAASGFTFSSSAMSWARQAPGKGLECVSDIYPDGTSSYADSMKGRFTISRDNTRNTMYLQMNVLKPEDTATYYCVIGRGGYAMGDRRLRGQGTQVTVSS | – | – | – | – | – | – | – | – | 0.57 | 222 | no binding | 2.32 | 2.35 | 0.02 | 1260 |
